T1: human interleukin 12 (p70 heterodimer of p35 and p40) (human, UniProt P29459 23-219; P29460 23-328)
T1 construct: Recombinant human IL-12; also called hIL-12; IL-12
T1 sequence (looked up) 1: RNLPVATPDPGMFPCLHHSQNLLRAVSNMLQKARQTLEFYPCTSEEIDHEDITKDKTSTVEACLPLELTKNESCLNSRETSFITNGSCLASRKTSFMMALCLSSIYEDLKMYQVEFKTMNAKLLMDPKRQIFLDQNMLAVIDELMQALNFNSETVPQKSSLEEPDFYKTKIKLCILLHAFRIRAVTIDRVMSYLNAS
T1 sequence (looked up) 2: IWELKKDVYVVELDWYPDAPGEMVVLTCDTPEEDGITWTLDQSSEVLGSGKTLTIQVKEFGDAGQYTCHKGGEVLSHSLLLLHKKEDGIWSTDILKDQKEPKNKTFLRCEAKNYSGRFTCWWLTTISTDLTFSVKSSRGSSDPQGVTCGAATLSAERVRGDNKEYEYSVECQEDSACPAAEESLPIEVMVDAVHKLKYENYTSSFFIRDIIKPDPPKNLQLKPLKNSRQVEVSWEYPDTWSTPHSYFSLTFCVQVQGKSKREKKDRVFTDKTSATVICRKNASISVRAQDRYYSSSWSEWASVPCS

B1: SEQ ID NO: 519 (Y61, V at L50) (antibody, V domains shown)
VH: QVQLVQSGGGVVQPGRSLRLSCAASGFTFSSYGMHWVRQAPGKGLEWVAFIRYDGSNKYYADSVKGRFTISRDNSKNTLYLQMKSLRAEDTAVYYCKTHGSHDNWGQGTMVTVSS
VL: SYVLTQPPSVSGTPGQRVTISCSGGRSNIGSNTVKWYQQLPGTAPKLLIYVNDQRPSGVPDRFSGSKSGTSASLAITGVQAEDEADYYCQSYDRGTHPALLFGTGTKVTVLG
B2: SEQ ID NO: 511 (Y61, H at L50) (antibody, V domains shown)
VH: B1 VH
VL: B1 VL with V51H
B3: SEQ ID NO: 513 (Y61, R at L50) (antibody, V domains shown)
VH: B1 VH
VL: B1 VL with V51R
B4: SEQ ID NO: 522 (Y61, I at L50) (antibody, V domains shown)
VH: B1 VH
VL: B1 VL with V51I
B5: SEQ ID NO: 526 (Y61, S at L53) (antibody, V domains shown)
VH: B1 VH
VL: B1 VL with V51G, Q54S
B6: SEQ ID NO: 527 (Y61, Y at L53) (antibody, V domains shown)
VH: B1 VH
VL: B1 VL with V51G, Q54Y
B7: SEQ ID NO: 521 (Y61, L at L50) (antibody, V domains shown)
VH: B1 VH
VL: B1 VL with V51L
B8: SEQ ID NO: 512 (Y61, K at L50) (antibody, V domains shown)
VH: B1 VH
VL: B1 VL with V51K
B9: SEQ ID NO: 523 (Y61, P at L50) (antibody, V domains shown)
VH: B1 VH
VL: B1 VL with V51P
B10: SEQ ID NO: 525 (Y61, F at L50) (antibody, V domains shown)
VH: B1 VH
VL: B1 VL with V51F
B11: SEQ ID NO: 531 (Y61, A at L53) (antibody, V domains shown)
VH: B1 VH
VL: B1 VL with V51G, Q54A
B12: SEQ ID NO: 509 (Y61, S at L50) (antibody, V domains shown)
VH: B1 VH
VL: B1 VL with V51S
B13: SEQ ID NO: 514 (Y61, N at L50) (antibody, V domains shown)
VH: B1 VH
VL: B1 VL with V51N
B14: SEQ ID NO: 524 (Y61, W at L50) (antibody, V domains shown)
VH: B1 VH
VL: B1 VL with V51W
B15: SEQ ID NO: 506 (Y61, D at L50) (antibody, V domains shown)
VH: B1 VH
VL: B1 VL with V51D
B16: SEQ ID NO: 516 (Y61, T at L50) (antibody, V domains shown)
VH: B1 VH
VL: B1 VL with V51T
B17: SEQ ID NO: 507 (Y61, E at L50) (antibody, V domains shown)
VH: B1 VH
VL: B1 VL with V51E
B18: SEQ ID NO: 528 (Y61, R at L53) (antibody, V domains shown)
VH: B1 VH
VL: B1 VL with V51G, Q54R
B19: SEQ ID NO: 518 (Y61, A at L50) (antibody, V domains shown)
VH: B1 VH
VL: B1 VL with V51A
B20: SEQ ID NO: 520 (Y61, M at L50) (antibody, V domains shown)
VH: B1 VH
VL: B1 VL with V51M
B21: SEQ ID NO: 508 (Y61, C at L50) (antibody, V domains shown)
VH: B1 VH
VL: B1 VL with V51C
B22: SEQ ID NO: 515 (Y61, Q at L50) (antibody, V domains shown)
VH: B1 VH
VL: B1 VL with V51Q
B23: SEQ ID NO: 530 (Y61, T at L53) (antibody, V domains shown)
VH: B1 VH
VL: B1 VL with V51G, Q54T
B24: SEQ ID NO: 487 (Y61, T at L31) (antibody, V domains shown)
VH: B1 VH
VL: B1 VL with N32T, V51G
B25: SEQ ID NO: 488 (Y61, G at L31) (antibody, V domains shown)
VH: B1 VH
VL: B1 VL with N32G, V51G
B26: SEQ ID NO: 505 (Y61, P at L32) (antibody, V domains shown)
VH: B1 VH
VL: B1 VL with T33P, V51G
B27: SEQ ID NO: 491 (Y61, D at L32) (antibody, V domains shown)
VH: B1 VH
VL: B1 VL with T33D, V51G
B28: SEQ ID NO: 498 (Y61, N at L32) (antibody, V domains shown)
VH: B1 VH
VL: B1 VL with T33N, V51G
B29: SEQ ID NO: 496 (Y61, K at L32) (antibody, V domains shown)
VH: B1 VH
VL: B1 VL with T33K, V51G
B30: SEQ ID NO: 489 (Y61, M at L31) (antibody, V domains shown)
VH: B1 VH
VL: B1 VL with N32M, V51G
B31: SEQ ID NO: 497 (Y61, R at L32) (antibody, V domains shown)
VH: B1 VH
VL: B1 VL with T33R, V51G
B32: SEQ ID NO: 493 (Y61, S at L32) (antibody, V domains shown)
VH: B1 VH
VL: B1 VL with T33S, V51G
B33: SEQ ID NO: 502 (Y61, V at L32) (antibody, V domains shown)
VH: B1 VH
VL: B1 VL with T33V, V51G
B34: SEQ ID NO: 495 (Y61, H at L32) (antibody, V domains shown)
VH: B1 VH
VL: B1 VL with T33H, V51G
B35: SEQ ID NO: 490 (Y61, I at L31) (antibody, V domains shown)
VH: B1 VH
VL: B1 VL with N32I, V51G
B36: SEQ ID NO: 503 (Y61, L at L32) (antibody, V domains shown)
VH: B1 VH
VL: B1 VL with T33L, V51G
B37: SEQ ID NO: 501 (Y61, A at L32) (antibody, V domains shown)
VH: B1 VH
VL: B1 VL with T33A, V51G
B38: SEQ ID NO: 492 (Y61, C at L32) (antibody, V domains shown)
VH: B1 VH
VL: B1 VL with T33C, V51G
B39: SEQ ID NO: 504 (Y61, I at L32) (antibody, V domains shown)
VH: B1 VH
VL: B1 VL with T33I, V51G
B40: SEQ ID NO: 494 (Y61, Y at L32) (antibody, V domains shown)
VH: B1 VH
VL: B1 VL with T33Y, V51G
B41: SEQ ID NO: 499 (Y61, Q at L32) (antibody, V domains shown)
VH: B1 VH
VL: B1 VL with T33Q, V51G

Positions count from the first letter of the chain named.

One experiment deals with T1, human interleukin 12 (p70 heterodimer …). The experiment is described as follows: SPR (BIAcore), off-rate. On the technique in general: In SPR one partner is held on a chip, and binding of the other changes the refractive index at the surface.
Broadly, the koff is the rate constant with which the complex falls apart. Read a low koff as slow dissociation. The molecule B1 registered a koff of 0.000385 s⁻¹.
Same read-out and setting: as for B2, the figure is 0.000761 s⁻¹.
Same read-out and setting: as for B3, the figure is 0.000444 s⁻¹.
As to B4, the koff was 0.0012 s⁻¹.
Same read-out and setting: in the case of B5 it was 0.000866 s⁻¹.
Regarding B6, the koff was determined as 0.000733 s⁻¹.
Molecule B7 returned a koff of 0.000616 s⁻¹. The koff values of the last two molecules are within 1.5-fold of each other.
In turn, B8 had a koff of 0.00243 s⁻¹. This koff lies about 3.9-fold higher than the previous one.
The same measure, in the same setting: as for B9, the figure is 0.00041 s⁻¹; as for B10, 0.0348 s⁻¹; as for B11, 0.000554 s⁻¹.
For the molecule B12, the koff was found to be 0.000286 s⁻¹.
On to B13, for which the koff came out at 0.000305 s⁻¹.
Turning to B14, the koff stood at 0.000382 s⁻¹. This koff and that of the molecule before are within 1.5-fold of each other.
Regarding B15, the koff is 0.000348 s⁻¹.
B16 had a koff of 0.000272 s⁻¹.
The same measure, in the same setting: as for B17, the figure is 0.000617 s⁻¹.
The molecule B18 yielded a koff of 0.000614 s⁻¹.
The molecule B19 returned a koff of 0.000372 s⁻¹.
The molecule B20 yielded a koff of 0.000953 s⁻¹. Compared with the last molecule, the koff is about 2.6-fold higher.
In turn, B21 registered a koff of 0.000467 s⁻¹.
As to B22, the koff amounted to 0.000348 s⁻¹. This koff and that of the molecule before are within 1.5-fold of each other.
Turning to B23, the koff is 0.000834 s⁻¹.

For another experiment the target is unchanged. Kind of experiment: SPR (BIAcore), off-rate. This is another data set of the same source.
The molecule B24 registered a koff of 0.000309 s⁻¹.
For B25, the koff was 0.000366 s⁻¹.
Consider B26, for which the koff worked out at 0.000424 s⁻¹.
B27 gave a koff of 0.000252 s⁻¹.
Same read-out and setting: as for B28, the figure is 0.00197 s⁻¹.
For B29, the koff is 0.000318 s⁻¹. Against the preceding molecule, the koff is about 6.2-fold lower.
B30 gave a koff of 0.000174 s⁻¹.
For B31, the koff worked out at 0.0069 s⁻¹.
For the molecule B32, the koff is 0.00191 s⁻¹.
Take B33: the koff turned out to be 0.00164 s⁻¹.
For B34, the koff came out at 0.00026 s⁻¹.
Turning to B35, the dissociation rate constant (koff) stood at 9.7e-05 s⁻¹. Compared with the last molecule, the koff is about 2.7-fold lower.
For the molecule B36, the koff was determined as 0.00215 s⁻¹.
With B37, the koff came out at 0.00191 s⁻¹.
Same read-out and setting: in the case of B38 it was 0.00381 s⁻¹.
In turn, B39 showed a koff of 0.00154 s⁻¹.
Same read-out and setting: in the case of B40 it was 0.000213 s⁻¹.
Turning to B41, the koff amounted to 0.00247 s⁻¹.

For the origin of these results see US20120219562A1 (AbbVie / Abbott, published 2012).
